B1: CPEB3 Ribozyme (parent)
chain: GGGGGCCACAGCAGAAGCGUUCACGUCGCGGCCCCUGUCAGAUUCUGGUGAAUCUGCGAAUUCUGCUGU

This data set covers variants of B1. Briefly: self-cleavage, relative activity (ratio to wild type); higher = more cleavage; co-transcriptional.
As for GGGGGCCACAGCAGAAACGUUCACGUCGCGGCCCCCGUCAGAUUCUGGUGAAUCUGCGAAUUCUGCUGU, the self-cleavage amounted to 0.225.
On to GGGGGCCACAGCAGAAACGUUCACGUCGCGGCCCCAGUCAGAUUCUGGUGAAUCUGCGAAUUCUGCUGU, for which the self-cleavage stood at 0.0937.
With GGGGGCCACAGCAGAAACGUUCACGUCGCGGCCCCGGUCAGAUUCUGGUGAAUCUGCGAAUUCUGCUGU the figure was 0.117; with GGGGGCCACAGCAGAAACGUUCACGUCGCGGCCCCUAUCAGAUUCUGGUGAAUCUGCGAAUUCUGCUGU, 0.153; with GGGGGCCACAGCAGAAACGUUCACGUCGCGGCCCCUCUCAGAUUCUGGUGAAUCUGCGAAUUCUGCUGU, 0.149.
With GGGGGCCACAGCAGAACCGUUCAAGUCGCGGCCCCUGUCAGAUUCUGGUGAAUCUGCGAAUUCUGCUGU the figure was 0.141; with GGGGGCCACAGCAGAACCGUUCAUGUCGCGGCCCCUGUCAGAUUCUGGUGAAUCUGCGAAUUCUGCUGU, 0.109.
As for GGGGGCCACAGCAGAACCGUUCAGGUCGCGGCCCCUGUCAGAUUCUGGUGAAUCUGCGAAUUCUGCUGU, the figure is 0.208; as for GGGGGCCACAGCAGAACCGUUCACGUCGCGGCCCCUGUCAGAUUCUGGUGGAUCUGCGAAUUCUGCUGU, 0.126; as for GGGGGCCACAGCAGAACCGUUCACGUCGCGGCCCCUGUCAGAUUCUGGUGUAUCUGCGAAUUCUGCUGU, 0.173.
Take GGGGGCCACAGCAGAACCGUUCACGUCGCGGCCCCUGUCAGAUUCUGGUGAGUCUGCGAAUUCUGCUGU: the self-cleavage turned out to be 0.196.
As for GGGGGCCACAGCAGAACCGUUCACGUCGCGGCCCCUGUCAGAUUCUGGUGAUUCUGCGAAUUCUGCUGU, the figure is 0.133; as for GGGGGCCACAGCAGAAACGUUCACGGCGCGGCCCCUGUCAGAUUCUGGUGAAUCUGCGAAUUCUGCUGU, 0.413.
Take GGGGGCCACAGCAGAAACGUUCACGCCGCGGCCCCUGUCAGAUUCUGGUGAAUCUGCGAAUUCUGCUGU: the self-cleavage came to 0.335.
Turning to GGGGGCCACAGCAGAACCGUUAACGUCGCGGCCCCUGUCAGAUUCUGGUGAAUCUGCGAAUUCUGCUGU, the self-cleavage turned out to be 0.117.
As for GGGGGCCACAGCAGAACCGUUGACGUCGCGGCCCCUGUCAGAUUCUGGUGAAUCUGCGAAUUCUGCUGU, the figure is 0.156; as for GGGGGCCACAGCAGAAACGUUCACGUCGCGGCCCCUGUCAGAUUCUGGUGAAUCUGCGAAUUCUGCUGG, 0.677; as for GGGGGCCACAGCAGAAACGUUCACGUCGCGGCCCCUGUCAGAUUCUGGUGAAUCUGCGAAUUCUGCUGC, 0.883.
Regarding GGGGGCCACAGCAGAAACGUUCACGUCGCGGCCCCUGUCAGAUUCUGGUGAAUCUGCGAAUUCUGCUUU, the self-cleavage worked out at 0.751.
With GGGGGCCACAGCAGAAACGUUCACGUCGCGGCCCCUGUCAGAUUCUGGUGAAUCUGCGAAUUCUGCUCU the figure was 0.704.
Take GGGGGCCACAGCAGAAACGUUCACGUCGCGGCCCCUGUCAGAUUCUGGUGAAUCUGCGAAUUCUGCUAU: the self-cleavage stood at 0.843.
Take GGGGGCCACAGCAGAAACGUUCACGUCGCGGCCCCUGUCAGAUUCUGGUGAAUCUGCGAAUUCUGCGGU: the self-cleavage was determined as 0.542.
As to GGGGGCCACAGCAGAAACGUUCACGUCGCGGCCCCUGUCAGAUUCUGGUGAAUCUGCGAAUUCUGCAGU, the self-cleavage worked out at 0.45.
On to GGGGGCCACAGCAGAAACGUUCACGUCGCGGCCCCUGUCAGAUUCUGGUGAAUCUGCGAAUUCCGCUGU, for which the self-cleavage turned out to be 0.242.
In the case of GGGGGCCACAGCAGAAACGUUCACGUCGCGGCCCCUGUCAGAUUCUGGUGAAUCUGCGAAUUCAGCUGU, the self-cleavage was determined as 0.211.
As for GGGGGCCACAGCAGAAACGUUCACGUCGCGGCCCCUGUCAGAUUCUGGUGAAUCUGCGAAUUCGGCUGU, the figure is 0.256; as for GGGGGCCACAGCAGAAACGUUCACGUCGCGGCCCCUGUCAGAUUCUCGUGAAUCUGCGAAUUCUGCUGU, 0.641; as for GGGGGCCACAGCAGAAACGUUCACGUCGCGGCCCCUGUCAGAUUCUAGUGAAUCUGCGAAUUCUGCUGU, 0.541.
Take GGGGGCCACAGCAGAAACGUUCACGUCGCGGCCCCUGUCAGAUUCUGCUGAAUCUGCGAAUUCUGCUGU: the self-cleavage was 0.599.
For GGGGGCCACAGCAGAAACGUACACGUCGCGGCCCCUGUCAGAUUCUGGUGAAUCUGCGAAUUCUGCUGU, the self-cleavage worked out at 0.384.
With GGGGGCCACAGCAGAAACGUCCACGUCGCGGCCCCUGUCAGAUUCUGGUGAAUCUGCGAAUUCUGCUGU the figure was 0.169; with GGGGGCCACAGCAGAAACGUGCACGUCGCGGCCCCUGUCAGAUUCUGGUGAAUCUGCGAAUUCUGCUGU, 0.128; with GGGGGCCACAGCAGAACCGUUCACGUCGCGGCCCCUGUCAGCUUCUGGUGAAUCUGCGAAUUCUGCUGU, 0.14.
As to GGGGGCCACAGCAGAACCGUUCACGUCGCGGCCCCUGUCAGUUUCUGGUGAAUCUGCGAAUUCUGCUGU, the self-cleavage stood at 0.151.
With GGGGGCCACAGCAGAAACGUUCACGUCGCGGCCCCUGUCAGAUUCCGGUGAAUCUGCGAAUUCUGCUGU the figure was 0.417.
In the case of GGGGGCCACAGCAGAAACGUUCACGUCGCGGCCCCUGUCAGAUGCUGGUGAAUCUGCGAAUUCUGCUGU, the self-cleavage came to 0.302.
In the case of GGGGGCCACAGCAGAAACGUUCACGUCGCGGCCCCUGUCAGAUCCUGGUGAAUCUGCGAAUUCUGCUGU, the self-cleavage turned out to be 0.255.
As for GGGGGCCACAGCAGAAACGUUCACGUCGCGGCCCCUGUCAGAUACUGGUGAAUCUGCGAAUUCUGCUGU, the figure is 0.397; as for GGGGGCCACAGCAGAAACGUUCACGUCGCGGCCCCUGUCAGAUUCUGGUGAAGCUGCGAAUUCUGCUGU, 0.38; as for GGGGGCCACAGCAGAAACGUUCACGUCGCGGCCCCUGUCAGAUUCUGGUGAACCUGCGAAUUCUGCUGU, 0.22.
With GGGGGCCACAGCAGAAACGUUCACGUCGCGGCCCCUGUCAGAUUCUGGUGAAACUGCGAAUUCUGCUGU, the self-cleavage worked out at 0.237.
On to GGGGGCCACAGCAGAAACGUUCACGUCGCGGCCCCUGUCAUAUUCUGGUGAAUCUGCGAAUUCUGCUGU, for which the self-cleavage came out at 0.183.
In the case of GGGGGCCACAGCAGAAACGUUCACGUCGCGGCCCCUGUCAAAUUCUGGUGAAUCUGCGAAUUCUGCUGU, the self-cleavage was 0.133.
As for GGGGGCCACAGCAGAAACGUUCACGUCGCGGCCCCUGUCACAUUCUGGUGAAUCUGCGAAUUCUGCUGU, the self-cleavage stood at 0.141.
As for GGGGGCCACAGCAGAAACGUUCACGUCGCGGCCCCUGUCAGAUUCUGGUUAAUCUGCGAAUUCUGCUGU, the self-cleavage stood at 0.547.
As to GGGGGCCACAGCAGAAACGUUCACGUCGCGGCCCCUGUCAGAUUCUGGUCAAUCUGCGAAUUCUGCUGU, the self-cleavage turned out to be 0.387.
As for GGGGGCCACAGCAGAAACGUUCACGUCGCGGCCCCUGUCAGAUUCUGGUAAAUCUGCGAAUUCUGCUGU, the figure is 0.488; as for GGGGGCCACAGCAGAAACGUUCACGUCGCGGCCCCUGUCAGAUUCUGGAGAAUCUGCGAAUUCUGCUGU, 0.611; as for GGGGGCCACAGCAGAAACGUUCACGUCGCGGCCCCUGUCAGAUUCUGGCGAAUCUGCGAAUUCUGCUGU, 0.486.
On to GGGGGCCACAGCAGAAACGUUCACGUCGCGGCCCCUGUCAGAUUCUGGGGAAUCUGCGAAUUCUGCUGU, for which the self-cleavage came to 0.444.
As to GGGGGCCACAGCAGAAACGUUCACGUCGCGGCCCCUGUCAGAUUCUGGUGAAUCUGCGAAUGCUGCUGU, the self-cleavage came out at 0.198.
On to GGGGGCCACAGCAGAAACGUUCACGUCGCGGCCCCUGUCAGAUUCUGGUGAAUCUGCGAAUCCUGCUGU, for which the self-cleavage was determined as 0.193.
As for GGGGGCCACAGCAGAAACGUUCACGUCGCGUCCCCUGUCAGAUUCUGGUGAAUCUGCGAAUUCUGCUGU, the figure is 0.113; as for GGGGGCCACAGCAGAAACGUUCACGUCGCGCCCCCUGUCAGAUUCUGGUGAAUCUGCGAAUUCUGCUGU, 0.135; as for GGGGGCCACAGCAGAACCGUUCACGUCGCGGCCCCUGUCAGAUUCUGGUGAAUCUGCGUAUUCUGCUGU, 0.0945.
As for GGGGGCCACAGCAGAAACGUUCACGUCGCGGCCCCUGUCAGAUUCUGGUGAAUCUGCGAAGUCUGCUGU, the figure is 0.237; as for GGGGGCCACAGCAGAACCGUUCACGUCGCGGCCCCUGUCAGAUUCUGGUGAAUCUGCGACUUCUGCUGU, 0.109.
As for GGGGGCCACAGCAGAACCGUUCACGUCGCGGCCCCUGUCAGAUUCUGGUGAAUCUGCGAGUUCUGCUGU, the self-cleavage is 0.127.
For the variant GGGGGCCACAGCAGAACCGUUCACGUCGCGGCCCCUGUCAGAUUCUGGUGAAUCUGCGAUUUCUGCUGU, the self-cleavage came to 0.183.
Take GGGGGCCACAGCAGAAACGUUCACGUCGCGGCCCCUGUCAGAUUCUGGUGAAUCGGCGAAUUCUGCUGU: the self-cleavage worked out at 0.16.
With GGGGGCCACAGCAGAAACGUUCACGUCGCGGCCCCUGUCAGAUUCUGGUGAAUCUGCGAAUUCUACUGU the figure was 0.203; with GGGGGCCACAGCAGAAACGUUCACGUCGCGGCCCCUGUCAGAUUCUGGUGAAUCUGCGAAUUCUCCUGU, 0.27.
With GGGGGCCACAGCAGAAACGUUCACGUCGCGGCCCCUGUCAGAUUCUGGUGAAUCUGCGAAUUCUUCUGU the figure was 0.225; with GGGGGCCACAGCAGAACCGUUCACGUCGCGGCCCCUGUCGGAUUCUGGUGAAUCUGCGAAUUCUGCUGU, 0.124.
Turning to GGGGGCCACAGCAGAACCGUUCACGUCGCGGCCCCUGUCUGAUUCUGGUGAAUCUGCGAAUUCUGCUGU, the self-cleavage stood at 0.14.
In the case of GGGGGCCACAGCAGAACCGUUCACGUCGCGGCCCCUGUCCGAUUCUGGUGAAUCUGCGAAUUCUGCUGU, the self-cleavage stood at 0.16.
With GGGGGCCACAGCAGAACCGUUCGCGUCGCGGCCCCUGUCAGAUUCUGGUGAAUCUGCGAAUUCUGCUGU, the self-cleavage turned out to be 0.116.
For GGGGGCCACAGCAGAACCGUUCCCGUCGCGGCCCCUGUCAGAUUCUGGUGAAUCUGCGAAUUCUGCUGU, the self-cleavage stood at 0.178.
As for GGGGGCCACAGCAGAACCGUUCUCGUCGCGGCCCCUGUCAGAUUCUGGUGAAUCUGCGAAUUCUGCUGU, the self-cleavage is 0.103.
GGGGGCCACAGCAGAAACGUUCACGUCGCGGCCCCUGUCAGAUUCUGGUGAAUCUGCAAAUUCUGCUGU: the self-cleavage is 0.259.
Take GGGGGCCACAGCAGAAACGUUCACGUCGCGGCCCCUGUCAGAUUCUGGUGAAUCUGCCAAUUCUGCUGU: the self-cleavage was found to be 0.454.
On to GGGGGCCACAGCAGAAACGUUCACGUCGCGGCCCCUGUCAGAUUCUGGUGAAUCUGCUAAUUCUGCUGU, for which the self-cleavage came out at 0.539.
Consider GGGGGCCACAGCAGAAACGCUCACGUCGCGGCCCCUGUCAGAUUCUGGUGAAUCUGCGAAUUCUGCUGU, for which the self-cleavage was found to be 0.0978.
With GGGGGCCACAGCAGAAACGUUCACGUCGCGGCCCCUGCCAGAUUCUGGUGAAUCUGCGAAUUCUGCUGU, the self-cleavage came out at 0.314.
As to GGGGGCCACAGCAGAAACGUUCACGUCGCGGCCCCUGGCAGAUUCUGGUGAAUCUGCGAAUUCUGCUGU, the self-cleavage is 0.11.
For GGGGGCCACAGCAGAAACGUUCACGUCGCUGCCCCUGUCAGAUUCUGGUGAAUCUGCGAAUUCUGCUGU, the self-cleavage was determined as 0.176.
In the case of GGGGGCCACAGCAGAAACGUUCACGUCGCAGCCCCUGUCAGAUUCUGGUGAAUCUGCGAAUUCUGCUGU, the self-cleavage is 0.164.
As to GGGGGCCACAGCAGAACUGUUCACGUCGCGGCCCCUGUCAGAUUCUGGUGAAUCUGCGAAUUCUGCUGU, the self-cleavage came to 0.169.

The record behind these values is the RNAGym collection of RNA variant scans (doi:10.7554/elife.80360).
